Experimental data reported in patent US20250346673A1 (DUALITY BIOLOGICS SUZHOU, published 2025).

T1: human FcγRIIA (H167) (human, UniProt P12318 36-218, limits assumed, biotinylated (site not stated))
T1 construct: also called Fey RIIA (H167)
T1 sequence (looked up): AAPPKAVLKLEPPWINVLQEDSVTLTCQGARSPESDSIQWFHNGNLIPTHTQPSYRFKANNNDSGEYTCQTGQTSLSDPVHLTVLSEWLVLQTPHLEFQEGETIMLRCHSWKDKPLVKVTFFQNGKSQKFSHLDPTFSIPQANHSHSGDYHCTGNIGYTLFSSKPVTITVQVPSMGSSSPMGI

T2: human FcγRIIA (R167) (human, UniProt P12318 36-218, limits assumed, biotinylated (site not stated))
T2 construct: also called Fe γ RIIA(R167); Fcγ RIJA (R167)
T2 sequence (looked up): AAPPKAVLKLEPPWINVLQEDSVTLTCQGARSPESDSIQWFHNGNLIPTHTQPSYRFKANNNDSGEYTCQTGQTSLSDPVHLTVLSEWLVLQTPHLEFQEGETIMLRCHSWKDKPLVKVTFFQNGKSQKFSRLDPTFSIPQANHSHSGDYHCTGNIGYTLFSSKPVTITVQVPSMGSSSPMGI

T3: human BDCA2 (human, UniProt Q8WTT0 1-213)
T3 construct: whole, on cells; also called hBDCA2; Blood dendritic cell antigen 2
T3 sequence (looked up): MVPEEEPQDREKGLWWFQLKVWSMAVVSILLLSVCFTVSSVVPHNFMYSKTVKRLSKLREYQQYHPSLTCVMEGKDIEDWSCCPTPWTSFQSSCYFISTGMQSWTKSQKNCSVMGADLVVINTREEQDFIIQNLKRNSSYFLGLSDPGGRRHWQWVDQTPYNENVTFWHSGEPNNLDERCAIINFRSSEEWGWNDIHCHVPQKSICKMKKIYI

T4: cynomolgus BDCA2 (cynomolgus monkey, UniProt A0A2K5UWP4 1-212)
T4 construct: whole, on cells; also called Cyno BDCA2; cynoBDCA2
T4 sequence: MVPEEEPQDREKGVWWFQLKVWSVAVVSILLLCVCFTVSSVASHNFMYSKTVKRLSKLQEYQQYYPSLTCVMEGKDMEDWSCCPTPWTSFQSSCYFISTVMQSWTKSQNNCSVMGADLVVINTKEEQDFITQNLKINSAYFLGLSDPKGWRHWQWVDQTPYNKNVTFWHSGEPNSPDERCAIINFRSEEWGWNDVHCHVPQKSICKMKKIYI


How the values were obtained:
human FcγRIIA (H167) [1] = target: T1, human FcγRIIA (H167); assay: SPR, FcγRIIA (H167); against the wild-type Fc antibody Hu033-03
Procedure: (§1) Antibody kinetics or affinity parameters were measured using BIAcore 8K and freshly fixed biotinylated human Fe γ RIIA(R167)/Fc γ RIIA (H167) SA chips. The experiment was run at 25° C. with a running buffer of 1×HBS-EP+(10 mM HEPES pH 7.4, 150 mM NaCl, 3 mM EDTA, 0.05% Surfactant P20). […] The binding and dissociation times of the antibody were 60 and 90 seconds, respectively. Two zero concentration samples are used to remove background signals. The sample was injected in a multi cycle manner, the analyte can be fully dissociated from the chip surface at the end of each cycle, and no regeneration step was applied. Data analysis was perform using Biacore Insight Evaluation Software (Version 2.0.15.12933). After deducting the reference channel (flow cell 1) and two zero concentration signals, affinity analysis was performed using a 1:1 binding model or steady-state model for curve fitting and calculation of kinetic parameters.

human FcγRIIA (R167) [2] = target: T2, human FcγRIIA (R167); assay: SPR (BIAcore 8K), biotinylated FcγRIIA (R167) on SA chip, antibody as analyte, 1:1 binding
Procedure: as §1

human FcγRIIA (H167) [3] = target: T1, human FcγRIIA (H167); assay: SPR (BIAcore 8K), biotinylated FcγRIIA (H167) on SA chip, antibody as analyte, 1:1 binding
Procedure: as §1

human FcγRIIA (R167) [4] = target: T2, human FcγRIIA (R167); assay: SPR, FcγRIIA (R167); against the wild-type Fc antibody Hu033-03
Procedure: as §1

human BDCA2 [5] = target: T3, human BDCA2; assay: FACS on CHOK1-hBDCA2 cells; EC50 table under the plot, unit from the x axis (nM) [continued) e.]
Procedure: (§2) The cells were recovered and resuspended to 2×10⁶/mL with FACS buffer (PBS+2% FBS). The cells were added to 3799 cell plates (Corning) at 100 μL/well, and the supernatant was discarded after centrifugation at 300 g. The antibodies were serially diluted with FACS buffer (Id.), the diluted antibodies were added to centrifuged cells and the cells were resuspended. The cells were incubated at 4° C. for 1 h. The incubated cells were then centrifuged at […] for 5 min and washed twice with FACS buffer. 100 μL Donkey anti-Mouse IgG (H+L) Highly Cross-Adsorbed Secondary Antibody-Alexa Fluor 488 (Invitrogen, A21202; 1:1000) secondary antibody was added to the cells, which were washed twice with FACS buffer after incubation at 4° C. for 1 h, resuspended with PBS, analyzed with FACS (BD FACS CantoTM II) instrument. The curve was fitted with GraphPad Prism6, and EC₅₀ values were calculated.

cynomolgus BDCA2 = target: T4, cynomolgus BDCA2; assay: FACS on 293F-cynoBDCA2 cells; EC50 table under the plot, unit from the x axis (nM) [continued) e.]
Procedure: as §2

human BDCA2 [6] = target: T3, human BDCA2; assay: cell-based or functional assay
human FcγRIIA (H167) [7] = target: T1, human FcγRIIA (H167); assay: SPR, FcγRIIA (H167); against the wild-type Fc antibody Hu033-20
Procedure: as §1

human FcγRIIA (R167) [8] = target: T2, human FcγRIIA (R167); assay: SPR, FcγRIIA (R167); against the wild-type Fc antibody Hu033-20
Procedure: as §1

Binder | Multiple of affinity (human FcγRIIA (H167) [1]) | Kd (human FcγRIIA (R167) [2]) | koff (human FcγRIIA (R167) [2]) | kon (human FcγRIIA (R167) [2]) | Kd (human FcγRIIA (H167) [3]) | koff (human FcγRIIA (H167) [3]) | kon (human FcγRIIA (H167) [3]) | Multiple of affinity (human FcγRIIA (R167) [4]) | EC50 (human BDCA2 [5]) | EC50 (cynomolgus BDCA2) | IC50 for inhibiting cytokine IFNα release, CpG-A stimulated human PBMC (human BDCA2 [6]) | Multiple of affinity (human FcγRIIA (H167) [7]) | Multiple of affinity (human FcγRIIA (R167) [8])
Hu033-03-T1 (antibody, human IgG1, kappa, Fc-mutated Hu033-03 (IgG1)) heavy: not shown light: DIVLTQSPASLAVSPGQRATITCRASESVSFRTSHLMHWYQQKPGQPPKLLIYGASNLESGVPARFSGSGSETDFTLTINPVEAEDTANYFCQQSIEDPPTFGGGTKVEIKRTVAAPSVFIFPPSDEQLKSGTASVVCLLNNFYPREAKVQWKVDNALQSGNSQESVTEQDSKDSTYSLSSTLTLSKADYEKHKVYACEVTHQGLSSPVTKSFNRGEC | 2.3 fold | 310 nM | 0.232 s⁻¹ | 750000 M⁻¹ s⁻¹ | 490 nM | 0.23 s⁻¹ | 470000 M⁻¹ s⁻¹ | 4 fold |  |  |  |  | 
Hu033-03-T2 (antibody, human IgG1, kappa, Fc-mutated Hu033-03 (IgG1)) heavy: EVQLVESGGGLVKPGGSLRLSCAASGFTFSSYGMSWVRQAPGKGLEWVSTISSGDSYTYYPDSVKGRFTISRDNAKNSLYLQMNSLRAEDTAVYYCARQIYYDYAYYFDFWGQGTTVTVSSASTKGPSVFPLAPSSKSTSGGTAALGCLVKDYFPEPVTVSWNSGALTSGVHTFPAVLQSSGLYSLSSVVTVPSSSLGTQTYICNVNHKPSNTKVDKKVEPKSCDKTHTCPPCPAPELLAGPDVFLFPPKPKDTLMISRTPEVTCVVVDVSHEDPEVKFNWYVDGVEVHNAKTKPREEQYNSTYRVVSVLTVLHQDWLNGKEYKCKVSNKALPAPEEKTISKAKGQPREPQVYTLPPSRDELTKNQVSLTCLVKGFYPSDIAVEWESNGQPENNYKTTPPVLDSDGSFFLYSKLTVDKSRWQQGNVFSCSVMHEALHNHYTQKSLSLSPGK light: DIVLTQSPASLAVSPGQRATITCRASESVSFRTSHLMHWYQQKPGQPPKLLIYGASNLESGVPARFSGSGSETDFTLTINPVEAEDTANYFCQQSIEDPPTFGGGTKVEIKRTVAAPSVFIFPPSDEQLKSGTASVVCLLNNFYPREAKVQWKVDNALQSGNSQESVTEQDSKDSTYSLSSTLTLSKADYEKHKVYACEVTHQGLSSPVTKSFNRGEC | 10 fold | 45.8 nM | 0.0899 s⁻¹ | 1.96e+06 M⁻¹ s⁻¹ | 103 nM | 0.0585 s⁻¹ | 570000 M⁻¹ s⁻¹ | 13.7 fold |  |  |  |  | 
Hu033-03-T3 (antibody, human IgG1, kappa, Fc-mutated Hu033-03 (IgG1)) heavy: not shown light: DIVLTQSPASLAVSPGQRATITCRASESVSFRTSHLMHWYQQKPGQPPKLLIYGASNLESGVPARFSGSGSETDFTLTINPVEAEDTANYFCQQSIEDPPTFGGGTKVEIKRTVAAPSVFIFPPSDEQLKSGTASVVCLLNNFYPREAKVQWKVDNALQSGNSQESVTEQDSKDSTYSLSSTLTLSKADYEKHKVYACEVTHQGLSSPVTKSFNRGEC | 7.3 fold | 303 nM | 0.225 s⁻¹ | 741000 M⁻¹ s⁻¹ | 162 nM | 0.0894 s⁻¹ | 551000 M⁻¹ s⁻¹ | 4.4 fold |  |  |  |  | 
mAb033 (antibody, V domains shown, Mouse hybridoma antibody) VH: EVQMVESGGDLVKPGDSLKLSCAASGFTFRSYGMSWVRQTPDKRLEWVATISSGDSYTYYPDSVKGRFTISRDNAKNTLYLQMSSLKSEDTALYYCARQIYYDYAYYFDFWGQGTTLTVSS VL: DIVLTQSPASLAVSLGQRATISCRASESVSFRTSHLMHWYQQKPGQPPKLLIYGASNLESGVPARFSGSGSETDFTLNIHPVEEEDAAAYFCQQSIEDPPTFGGGTKLEIK |  |  |  |  |  |  |  |  | 0.388 nM | 1.18 nM | 0.00408 nM |  | 
Hu033-20-T1 (antibody, human IgG1, kappa, Fc-mutated Hu033-20 (IgG1)) heavy: not shown light: DIVMTQSPDSLAVSLGERATINCRASESVSFRTSHLMHWYQQKPGQPPKLLIYGASNLESGVPDRFSGSGSGTDFTLTISSLQAEDVAVYYCQQSIEDPPTFGGGTKVEIKRTVAAPSVFIFPPSDEQLKSGTASVVCLLNNFYPREAKVQWKVDNALQSGNSQESVTEQDSKDSTYSLSSTLTLSKADYEKHKVYACEVTHQGLSSPVTKSFNRGEC |  | 312 nM | 0.249 s⁻¹ | 798000 M⁻¹ s⁻¹ | 489 nM | 0.242 s⁻¹ | 494000 M⁻¹ s⁻¹ |  |  |  |  | 2.5 fold | 5.1 fold
Hu033-20-T3 (antibody, human IgG1, kappa, Fc-mutated Hu033-20 (IgG1)) heavy: not shown light: DIVMTQSPDSLAVSLGERATINCRASESVSFRTSHLMHWYQQKPGQPPKLLIYGASNLESGVPDRFSGSGSGTDFTLTISSLQAEDVAVYYCQQSIEDPPTFGGGTKVEIKRTVAAPSVFIFPPSDEQLKSGTASVVCLLNNFYPREAKVQWKVDNALQSGNSQESVTEQDSKDSTYSLSSTLTLSKADYEKHKVYACEVTHQGLSSPVTKSFNRGEC |  | 279 nM | 0.191 s⁻¹ | 683000 M⁻¹ s⁻¹ | 154 nM | 0.087 s⁻¹ | 563000 M⁻¹ s⁻¹ |  |  |  |  | 8.7 fold | 6.3 fold
Hu033-20-T2 (antibody, human IgG1, kappa, Fc-mutated Hu033-20 (IgG1)) heavy: EVQLVESGGGLVKPGGSLRLSCAASGFTFRSYGMSWVRQAPGKRLEWVSTISSGDSYTYYPDSVKGRFTISRDNAKNSLYLQMNSLKAEDTAVYYCARQIYYDYAYYFDFWGQGTTVTVSSASTKGPSVFPLAPSSKSTSGGTAALGCLVKDYFPEPVTVSWNSGALTSGVHTFPAVLQSSGLYSLSSVVTVPSSSLGTQTYICNVNHKPSNTKVDKKVEPKSCDKTHTCPPCPAPELLAGPDVFLFPPKPKDTLMISRTPEVTCVVVDVSHEDPEVKFNWYVDGVEVHNAKTKPREEQYNSTYRVVSVLTVLHQDWLNGKEYKCKVSNKALPAPEEKTISKAKGQPREPQVYTLPPSRDELTKNQVSLTCLVKGFYPSDIAVEWESNGQPENNYKTTPPVLDSDGSFFLYSKLTVDKSRWQQGNVFSCSVMHEALHNHYTQKSLSLSPGK light: DIVMTQSPDSLAVSLGERATINCRASESVSFRTSHLMHWYQQKPGQPPKLLIYGASNLESGVPDRFSGSGSGTDFTLTISSLQAEDVAVYYCQQSIEDPPTFGGGTKVEIKRTVAAPSVFIFPPSDEQLKSGTASVVCLLNNFYPREAKVQWKVDNALQSGNSQESVTEQDSKDSTYSLSSTLTLSKADYEKHKVYACEVTHQGLSSPVTKSFNRGEC |  | 41.1 nM | 0.0821 s⁻¹ | 2e+06 M⁻¹ s⁻¹ | 95.5 nM | 0.0577 s⁻¹ | 604000 M⁻¹ s⁻¹ |  |  |  |  | 12.1 fold | 17.7 fold
